A value given as a limit tells only on which side of the number the result lay.

The target in assay [1] is Escherichia coli core RNA polymerase, assembled into synthetic transcription elongation complexes (TECs) (E. coli) (UniProt P0A8V2).
Assay [2] shares this target. In words: native gel or EMSA.
Assay [3] shares this target. In words: native gel or EMSA. This is another data set of the same source.
The target is the same in assay [4]. In words: […]) at 10 nM, […].

UniProt P0A8V2, sequence (P0A8V2 whole entry, looked up, one chain of several): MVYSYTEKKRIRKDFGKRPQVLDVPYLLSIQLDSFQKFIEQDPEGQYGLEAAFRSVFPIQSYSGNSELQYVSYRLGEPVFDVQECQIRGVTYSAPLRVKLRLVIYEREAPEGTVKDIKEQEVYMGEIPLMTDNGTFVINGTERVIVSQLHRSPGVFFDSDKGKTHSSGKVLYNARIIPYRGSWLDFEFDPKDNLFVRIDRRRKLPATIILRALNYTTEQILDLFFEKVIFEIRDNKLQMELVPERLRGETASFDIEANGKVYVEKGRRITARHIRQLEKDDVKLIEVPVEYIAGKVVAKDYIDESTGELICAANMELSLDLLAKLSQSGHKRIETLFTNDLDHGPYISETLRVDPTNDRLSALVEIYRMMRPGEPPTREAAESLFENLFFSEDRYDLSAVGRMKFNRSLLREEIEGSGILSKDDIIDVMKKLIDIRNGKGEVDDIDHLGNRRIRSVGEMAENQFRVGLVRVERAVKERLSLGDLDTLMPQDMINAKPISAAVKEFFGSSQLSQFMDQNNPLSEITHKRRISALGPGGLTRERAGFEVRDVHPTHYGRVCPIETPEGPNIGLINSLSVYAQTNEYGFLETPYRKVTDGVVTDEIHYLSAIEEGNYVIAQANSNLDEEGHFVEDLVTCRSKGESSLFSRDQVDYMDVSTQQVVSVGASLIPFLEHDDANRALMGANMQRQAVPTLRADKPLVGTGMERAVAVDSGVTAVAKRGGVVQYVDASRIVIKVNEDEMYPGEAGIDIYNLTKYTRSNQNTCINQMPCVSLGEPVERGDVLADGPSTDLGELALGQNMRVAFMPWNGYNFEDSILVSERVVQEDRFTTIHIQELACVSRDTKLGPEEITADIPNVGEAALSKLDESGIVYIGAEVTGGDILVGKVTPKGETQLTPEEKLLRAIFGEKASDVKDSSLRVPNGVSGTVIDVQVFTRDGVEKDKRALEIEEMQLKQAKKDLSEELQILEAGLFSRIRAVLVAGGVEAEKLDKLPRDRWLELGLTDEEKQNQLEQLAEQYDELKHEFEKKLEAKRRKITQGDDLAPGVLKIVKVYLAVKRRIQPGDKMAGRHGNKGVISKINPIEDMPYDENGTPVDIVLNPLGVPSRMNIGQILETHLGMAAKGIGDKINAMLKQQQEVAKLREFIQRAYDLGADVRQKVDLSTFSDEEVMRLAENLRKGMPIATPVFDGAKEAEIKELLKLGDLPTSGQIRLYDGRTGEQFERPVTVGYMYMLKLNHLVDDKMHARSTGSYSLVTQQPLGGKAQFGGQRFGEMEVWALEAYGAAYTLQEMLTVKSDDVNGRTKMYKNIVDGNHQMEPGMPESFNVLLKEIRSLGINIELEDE

Turning to “Escherichia coli σ^38 subunit (stationary phase and stress response σ factor) (from UniProt P13445 1-330) (natural protein)”, the Kd from pausing efficiency in the transcription assay on the '-TG' TEC variant in assay [1] stood at 525 nM. Also, the values for the equilibrium dissociation constant (Kd) in assay [2], in assay [3] and in assay [4] were above 10 µM, 900 nM and 330 nM, respectively.

Values taken from publication PMC5389655.
